Patent publication US20080057063A1

Tests used:
[1] = target: mouse αV (HEK-293 cells transfected with mouse αV alone) (mouse) (UniProt P43406); experiment: FACS, HEK-293 transfected with mouse αV
[2] = target: α4β1 integrin (on J6.77 cells) (UniProt P13612); experiment: cell-based or functional assay
[3] = target: cynomolgus αV (HEK-293 cells transfected with cynomolgus αV alone) (cynomolgus); experiment: FACS, HEK-293 transfected with cynomolgus αV
[4] = target: mouse αVβ6 on cells (mouse) (UniProt P43406); experiment: FACS, K562 cells expressing mouse αVβ6 (parental 46)
[5] = target: cynomolgus αVβ6 on cells (cynomolgus); experiment: FACS, K562 cells expressing cynomolgus αVβ6 (parental 46)
[6] = target: mouse αVβ6 on cells (mouse) (UniProt P43406); experiment: FACS, HEK-293 transfected with mouse αVβ6
[7] = target: mouse β6 (HEK-293 cells transfected with mouse β6 alone) (mouse) (UniProt Q9Z0T9); experiment: FACS, HEK-293 transfected with mouse β6
[8] = target: cynomolgus β6 (HEK-293 cells transfected with cynomolgus β6 alone) (cynomolgus); experiment: FACS, HEK-293 transfected with cynomolgus β6
[9] = target: cynomolgus αVβ6 on cells (cynomolgus); experiment: FACS, HEK-293 transfected with cynomolgus αVβ6
[10] = target: human αV on parental A375M cells, which express αVβ3 and αVβ5, but not αVβ6 (human) (UniProt P06756); experiment: FACS, parental A375M cells, day 1
[11] = target: cynomolgus αVβ6 on cells (cynomolgus); experiment: FACS, HEK-293 transfected with cynomolgus αV and β6, day 1
[12] = target: α5β1 integrin (on K562 cells) (UniProt P08648); experiment: cell-based or functional assay
[13] = target: human αV on parental A375M cells, which express αVβ3 and αVβ5, but not αVβ6 (human) (UniProt P06756); experiment: cell-based or functional assay
[14] = target: human αV on parental A375M cells, which express αVβ3 and αVβ5, but not αVβ6 (human) (UniProt P06756); experiment: FACS, parental A375M cells, day 2
[15] = target: cynomolgus αVβ6 on cells (cynomolgus); experiment: FACS, HEK-293 transfected with cynomolgus αV and β6, day 2
[16] = target: cynomolgus αVβ6 on cells (cynomolgus); experiment: FACS, K562 cells expressing cynomolgus αVβ6 (parental 12)
[17] = target: mouse αVβ6 on cells (mouse) (UniProt P43406); experiment: FACS, K562 cells expressing mouse αVβ6 (parental 12)
[18] = target: cynomolgus αVβ6 on cells (cynomolgus); experiment: FACS, K562 cells expressing cynomolgus αVβ6 (parental 23)
[19] = target: mouse αVβ6 on cells (mouse) (UniProt P43406); experiment: FACS, K562 cells expressing mouse αVβ6 (parental 23)
[20] = target: human αVβ6 integrin on cells (human) (UniProt P06756); experiment: cell-based or functional assay
[21] = target: cynomolgus αVβ6 on cells (cynomolgus); experiment: FACS, K562 cells expressing cynomolgus αVβ6 (parental 15)
[22] = target: soluble αVβ6 (human) (UniProt P06756); experiment: ELISA on coated soluble αVβ6, 1 ug/mL
[23] = target: human αVβ6 integrin on cells (human) (UniProt P06756); experiment: FMAT, HEK 293 cells overexpressing αVβ6, 1 ug/mL
[24] = target: mouse αVβ6 on cells (mouse) (UniProt P43406); experiment: FACS, K562 cells expressing mouse αVβ6 (parental 15)

human αV on parental A375M cells, which express αVβ3 and αVβ5, but not αVβ6 (human), sequence (P06756 31-1048 A375M): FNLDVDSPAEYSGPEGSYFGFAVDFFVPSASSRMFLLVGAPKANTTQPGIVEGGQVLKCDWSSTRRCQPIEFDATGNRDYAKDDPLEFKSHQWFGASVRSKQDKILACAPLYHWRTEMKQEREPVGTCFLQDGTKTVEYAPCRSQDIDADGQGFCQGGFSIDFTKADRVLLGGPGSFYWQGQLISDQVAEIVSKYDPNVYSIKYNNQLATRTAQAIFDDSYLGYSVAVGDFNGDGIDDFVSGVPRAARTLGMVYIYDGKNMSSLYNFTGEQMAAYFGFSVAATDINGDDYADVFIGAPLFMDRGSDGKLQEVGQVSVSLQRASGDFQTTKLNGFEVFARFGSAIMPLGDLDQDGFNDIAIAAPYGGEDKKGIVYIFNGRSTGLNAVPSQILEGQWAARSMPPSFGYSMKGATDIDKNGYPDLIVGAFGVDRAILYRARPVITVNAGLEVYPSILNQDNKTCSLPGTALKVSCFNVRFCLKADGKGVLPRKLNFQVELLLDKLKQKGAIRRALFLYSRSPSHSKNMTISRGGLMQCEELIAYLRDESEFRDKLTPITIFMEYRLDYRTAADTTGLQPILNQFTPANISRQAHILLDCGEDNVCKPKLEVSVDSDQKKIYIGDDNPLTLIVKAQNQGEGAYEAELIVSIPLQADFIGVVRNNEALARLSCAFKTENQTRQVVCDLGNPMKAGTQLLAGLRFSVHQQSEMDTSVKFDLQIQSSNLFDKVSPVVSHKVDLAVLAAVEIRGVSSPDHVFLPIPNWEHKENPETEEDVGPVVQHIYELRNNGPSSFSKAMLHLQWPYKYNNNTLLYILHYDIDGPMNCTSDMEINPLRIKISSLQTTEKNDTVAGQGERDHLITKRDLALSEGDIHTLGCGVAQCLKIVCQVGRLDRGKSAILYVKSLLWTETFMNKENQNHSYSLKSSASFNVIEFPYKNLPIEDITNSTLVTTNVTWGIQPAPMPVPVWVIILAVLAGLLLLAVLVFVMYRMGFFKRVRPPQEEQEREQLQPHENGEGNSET
human αVβ6 integrin on cells (human), sequence (P06756 31-1048, chain 1 of 2): as the sequence (P06756 31-1048 A375M) above, with M345A counted along it
human αVβ6 integrin on cells (human), sequence (P18564 22-788, chain 2 of 2, further chain): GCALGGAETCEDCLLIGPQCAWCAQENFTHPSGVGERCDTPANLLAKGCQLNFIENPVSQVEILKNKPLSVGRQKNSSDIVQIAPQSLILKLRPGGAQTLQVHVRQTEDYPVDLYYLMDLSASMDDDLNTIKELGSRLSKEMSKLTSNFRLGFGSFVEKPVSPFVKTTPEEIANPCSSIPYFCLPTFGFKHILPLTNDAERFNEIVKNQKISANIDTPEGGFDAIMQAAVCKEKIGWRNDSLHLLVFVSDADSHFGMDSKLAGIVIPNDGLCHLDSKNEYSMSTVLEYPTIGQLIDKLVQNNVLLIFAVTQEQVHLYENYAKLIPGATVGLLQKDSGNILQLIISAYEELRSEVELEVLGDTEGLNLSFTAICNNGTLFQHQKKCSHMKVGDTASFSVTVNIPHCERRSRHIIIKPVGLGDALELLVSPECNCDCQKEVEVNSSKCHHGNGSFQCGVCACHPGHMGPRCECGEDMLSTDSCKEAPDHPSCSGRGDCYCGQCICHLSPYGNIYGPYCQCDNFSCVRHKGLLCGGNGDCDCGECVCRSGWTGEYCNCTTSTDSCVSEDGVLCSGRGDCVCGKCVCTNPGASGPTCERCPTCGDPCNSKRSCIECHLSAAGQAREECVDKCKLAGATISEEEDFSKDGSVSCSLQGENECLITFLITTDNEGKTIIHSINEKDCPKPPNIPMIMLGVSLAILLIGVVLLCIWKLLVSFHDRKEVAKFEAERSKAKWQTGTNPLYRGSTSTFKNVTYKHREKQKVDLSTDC
mouse αVβ6 on cells (mouse), sequence (P43406 31-1044, chain 1 of 2): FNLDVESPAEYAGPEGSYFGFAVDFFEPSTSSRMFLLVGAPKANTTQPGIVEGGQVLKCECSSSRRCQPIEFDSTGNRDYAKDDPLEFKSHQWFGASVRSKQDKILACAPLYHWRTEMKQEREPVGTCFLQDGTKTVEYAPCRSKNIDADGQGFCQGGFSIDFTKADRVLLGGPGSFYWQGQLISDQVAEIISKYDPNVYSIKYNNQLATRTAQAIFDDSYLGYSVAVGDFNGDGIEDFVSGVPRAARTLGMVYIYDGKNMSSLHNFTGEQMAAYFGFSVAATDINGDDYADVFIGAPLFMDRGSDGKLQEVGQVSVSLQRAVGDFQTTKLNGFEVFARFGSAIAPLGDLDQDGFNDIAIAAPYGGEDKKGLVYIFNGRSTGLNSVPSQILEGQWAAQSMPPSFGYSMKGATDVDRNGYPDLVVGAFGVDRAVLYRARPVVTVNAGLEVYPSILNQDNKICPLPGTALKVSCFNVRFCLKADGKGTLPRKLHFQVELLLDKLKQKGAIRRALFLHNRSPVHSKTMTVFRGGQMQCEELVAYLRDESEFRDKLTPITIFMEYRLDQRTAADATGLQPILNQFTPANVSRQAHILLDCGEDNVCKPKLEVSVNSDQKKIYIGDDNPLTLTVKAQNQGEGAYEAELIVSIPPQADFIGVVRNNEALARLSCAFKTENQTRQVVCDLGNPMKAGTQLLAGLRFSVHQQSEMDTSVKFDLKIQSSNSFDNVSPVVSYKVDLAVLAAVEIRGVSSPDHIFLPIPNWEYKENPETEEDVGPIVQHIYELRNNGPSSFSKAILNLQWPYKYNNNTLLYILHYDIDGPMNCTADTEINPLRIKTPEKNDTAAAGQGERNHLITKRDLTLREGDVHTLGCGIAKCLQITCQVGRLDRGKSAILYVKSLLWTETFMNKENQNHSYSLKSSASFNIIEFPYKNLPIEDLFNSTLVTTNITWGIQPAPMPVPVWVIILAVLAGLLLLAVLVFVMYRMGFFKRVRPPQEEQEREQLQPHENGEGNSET
mouse αVβ6 on cells (mouse), sequence (Q9Z0T9 22-787, chain 2 of 2, further chain): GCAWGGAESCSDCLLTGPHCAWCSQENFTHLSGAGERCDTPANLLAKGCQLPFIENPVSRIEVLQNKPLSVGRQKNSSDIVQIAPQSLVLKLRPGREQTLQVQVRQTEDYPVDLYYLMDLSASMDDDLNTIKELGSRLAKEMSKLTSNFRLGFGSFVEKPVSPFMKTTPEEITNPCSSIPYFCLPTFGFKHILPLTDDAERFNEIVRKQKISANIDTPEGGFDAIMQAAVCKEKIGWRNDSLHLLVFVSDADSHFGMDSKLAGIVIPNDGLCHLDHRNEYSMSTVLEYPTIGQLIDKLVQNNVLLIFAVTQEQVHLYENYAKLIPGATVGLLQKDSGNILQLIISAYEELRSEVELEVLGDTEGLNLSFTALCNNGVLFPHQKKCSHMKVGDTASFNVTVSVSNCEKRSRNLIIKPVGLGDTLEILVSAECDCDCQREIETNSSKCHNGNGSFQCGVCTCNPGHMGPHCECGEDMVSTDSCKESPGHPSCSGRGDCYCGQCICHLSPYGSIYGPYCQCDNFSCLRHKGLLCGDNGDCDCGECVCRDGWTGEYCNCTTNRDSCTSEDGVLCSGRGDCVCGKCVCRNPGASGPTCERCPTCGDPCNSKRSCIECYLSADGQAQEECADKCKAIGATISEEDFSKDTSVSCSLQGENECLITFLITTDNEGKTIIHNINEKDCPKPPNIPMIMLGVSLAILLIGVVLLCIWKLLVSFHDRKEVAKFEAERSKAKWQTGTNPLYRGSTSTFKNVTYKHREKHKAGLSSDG
mouse β6 (HEK-293 cells transfected with mouse β6 alone) (mouse), sequence (Q9Z0T9 22-787): as the sequence (Q9Z0T9 22-787, chain 2 of 2, further chain) above
mouse αV (HEK-293 cells transfected with mouse αV alone) (mouse), sequence (P43406 31-1044): as the sequence (P43406 31-1044, chain 1 of 2) above

Human IgG1 (antibody)
percent of cells shifted [1]: 1% | Percent Inhibition (J6.77 adhesion to CS-1 peptide of fibronectin, 5 ug/ml) [2]: 26% | percent of cells shifted [3]: 1% | Geometric Mean Shift [4]: 108 | Geometric Mean Shift [5]: 54 | percent of cells shifted [6]: 1% | percent of cells shifted [7]: 0% | percent of cells shifted [8]: 1% | percent of cells shifted [9]: 0%

Human IgG2 (antibody)
Percent Inhibition (J6.77 adhesion to CS-1 peptide of fibronectin, 5 ug/ml) [2]: 13%

Human IgG4 (antibody)
Percent Inhibition (J6.77 adhesion to CS-1 peptide of fibronectin, 5 ug/ml) [2]: 15%

Human IgG Isotype Control (antibody)
% Cells Shifted [10]: 5% | GeoMean [10]: 1.66 | % Cells Shifted [11]: 1% | GeoMean [11]: 9.54 | % Inhibition (K562 adhesion to fibronectin) [12]: -12% | Percent Inhibition (K562 adhesion to FN9-10 peptide of fibronectin, 5 µg/ml) [12]: 11% | Percent Inhibition (A375M adhesion to osteopontin peptide, 5 µg/ml) [13]: 3% | % Cells Shifted [14]: 1% | GeoMean [14]: 7.23 | % Cells Shifted [15]: 0% | GeoMean [15]: 7.39

Mouse IgG1 (antibody)
Geometric Mean Shift [16]: 13 | Geometric Mean Shift [17]: 20

Mouse IgG2 with Murine Secondary Antibody
% Cells Shifted [10]: 4% | GeoMean [10]: 1.67 | % Cells Shifted [11]: 1% | GeoMean [11]: 8.85 | % Cells Shifted [14]: 3% | GeoMean [14]: 11.2 | % Cells Shifted [15]: 0% | GeoMean [15]: 11.2

Mouse IgG2a (antibody)
Geometric Mean Shift [18]: 25 | Geometric Mean Shift [19]: 36

Mouse IgG Control (antibody)
Percent Inhibition (A375M adhesion to osteopontin peptide, 5 µg/ml) [13]: 5%

murine αVβ6 antibody (Cat#MAB2077z, Chemicon)
% Cells Shifted [10]: 30% | GeoMean [10]: 2.03 | percent of cells shifted [1]: 1% | % Cells Shifted [11]: 42% | GeoMean [11]: 55.5 | Estimated IC50, n = 1 (HT29 adhesion to TGFβLAP) [20]: 0.226 µg/mL | Estimated IC50, n = 2 (HT29 adhesion to TGFβLAP) [20]: 0.185 µg/mL | Estimated IC50, n = 3 (HT29 adhesion to TGFβLAP) [20]: 0.286 µg/mL | % Cells Shifted [14]: 5% | GeoMean [14]: 15.4 | Geometric Mean Shift [21]: 84 | percent of cells shifted [3]: 0% | ELISA OD [22]: 6 | FMAT Count [23]: 67 | FMAT FL1 [23]: 659 | FMAT FL1 × Count [23]: 44200 | percent of cells shifted [6]: 45% | percent of cells shifted [7]: 11% | percent of cells shifted [8]: 5% | % Cells Shifted [15]: 11% | GeoMean [15]: 28.1 | Geometric Mean Shift [24]: 122 | percent of cells shifted [9]: 20%
